Paper PMC3091828
pKd: −log10 of the molar value. Read-outs that look alike come from different tables or passages of the source.

Columns and labels:
[1] = target: CL-arrestin-2-L33C, bimane-labeled (UniProt P17870); assay: fluorescence polarisation
[2] = target: CL-arrestin-2-L33C, bimane-labeled (UniProt P17870); assay: fluorescence polarisation; remark: listed apart in the source

MBP-parkin, sequence (O60260 whole entry): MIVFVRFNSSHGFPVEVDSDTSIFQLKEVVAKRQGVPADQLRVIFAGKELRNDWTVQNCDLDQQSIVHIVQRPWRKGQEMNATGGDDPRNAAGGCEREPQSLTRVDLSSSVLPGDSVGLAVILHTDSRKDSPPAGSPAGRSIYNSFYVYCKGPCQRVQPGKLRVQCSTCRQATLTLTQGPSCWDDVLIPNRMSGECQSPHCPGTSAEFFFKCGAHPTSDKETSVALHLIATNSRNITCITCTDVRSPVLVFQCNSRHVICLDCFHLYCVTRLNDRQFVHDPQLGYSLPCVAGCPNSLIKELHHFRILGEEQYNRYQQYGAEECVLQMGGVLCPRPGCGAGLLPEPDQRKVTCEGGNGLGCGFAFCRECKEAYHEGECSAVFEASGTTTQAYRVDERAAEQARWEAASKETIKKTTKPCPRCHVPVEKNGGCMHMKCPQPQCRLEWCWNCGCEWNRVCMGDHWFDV

For “MBP-parkin (from UniProt O60260 1-465) (enzyme)”, the pKd [1] was 4.70 and the pKd [2] was 4.72.
